According to publication PMC10774444, “BPG4 regulates chloroplast development and homeostasis by suppressing GLK transcription factors and involving light and brassinosteroid signaling”:

Molecular target: T1, GST-GLK1 (Arabidopsis thaliana, UniProt Q9SIV3 1-420)
T1 sequence: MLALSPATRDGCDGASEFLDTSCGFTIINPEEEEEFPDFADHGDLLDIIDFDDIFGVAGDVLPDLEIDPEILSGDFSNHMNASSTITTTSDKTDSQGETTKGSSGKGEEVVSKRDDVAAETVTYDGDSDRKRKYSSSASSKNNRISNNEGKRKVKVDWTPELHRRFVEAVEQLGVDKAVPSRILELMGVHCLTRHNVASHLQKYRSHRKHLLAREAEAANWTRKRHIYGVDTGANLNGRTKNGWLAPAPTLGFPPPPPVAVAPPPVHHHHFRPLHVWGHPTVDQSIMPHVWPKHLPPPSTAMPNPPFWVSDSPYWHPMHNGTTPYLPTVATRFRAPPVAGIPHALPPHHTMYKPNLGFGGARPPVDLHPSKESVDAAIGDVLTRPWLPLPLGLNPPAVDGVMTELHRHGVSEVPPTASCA
Test: EMSA; without BPG4; GLK1 EMSA: 10 mM Tris-HCl pH 8.0, 50 mM KCl, 10 mM EDTA, 2.5% glycerol, 1 mM DTT, 0.05 ug/ul poly(dI-dC), 5 pmol probe; proteins preincubated on ice 5 min then
Conditions: protein: recombinant; tags: N-term GST (pGEX-6P-3); label: FAM; blunt

B1: CAO-probe (dsDNA)
DNA 1: TTTAGATCCCATGATTCTCAACACGACTGA
DNA 2: TCAGTCGTGTTGAGAATCATGGGATCTAAA
B1: binds.
